According to paper PMC6393306:
Like-named read-outs stand apart in the source and are kept apart here.

Legend:
[1] = biological target: T1, GEN1 1-527 (dimer) (Homo sapiens, UniProt Q17RS7 1-527); assay: EMSA
T1 sequence: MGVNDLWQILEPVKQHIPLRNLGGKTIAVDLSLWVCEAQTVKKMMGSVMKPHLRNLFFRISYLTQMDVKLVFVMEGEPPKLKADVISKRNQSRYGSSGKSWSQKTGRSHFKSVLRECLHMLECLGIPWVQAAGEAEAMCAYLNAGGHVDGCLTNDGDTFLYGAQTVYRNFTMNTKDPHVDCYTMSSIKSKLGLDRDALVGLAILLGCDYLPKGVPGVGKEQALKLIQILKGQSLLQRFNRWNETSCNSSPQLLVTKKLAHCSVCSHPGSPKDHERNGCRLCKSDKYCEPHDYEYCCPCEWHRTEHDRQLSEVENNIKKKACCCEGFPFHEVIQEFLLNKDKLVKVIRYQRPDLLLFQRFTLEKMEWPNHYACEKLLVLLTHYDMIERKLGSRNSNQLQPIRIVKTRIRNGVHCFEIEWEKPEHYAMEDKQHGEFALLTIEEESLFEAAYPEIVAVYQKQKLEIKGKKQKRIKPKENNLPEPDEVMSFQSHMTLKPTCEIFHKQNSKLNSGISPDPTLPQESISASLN

[2] = biological target: T1, GEN1 1-527 (dimer); assay: EMSA; remark: listed apart in the source

B1: X0 (Cy5, EMSA) (structured_DNA)
DNA 1: ACGCTGCCGAATTCTACCAGTGCCTTGCTAGGACATCTTTGCCCACCTGCAGGTTCACCC
DNA 2: GGGTGAACCTGCAGGTGGGCAAAGATGTCCATCTGTTGTAATCGTCAAGCTTTATGCCGT
DNA 3: ACGGCATAAAGCTTGACGATTACAACAGATCATGGAGCTGTCTAGAGGATCCGACTATCG
DNA 4: CGATAGTCGGATCCTCTAGACAGCTCCATGTAGCAAGGCACTGGTAGAATTCGGCAGCGT
[1]
  Kd: 23.4 nM
[2]
  Kd: 6.23 nM
